Experimental data as given in article PMC11077067, “Protein G-quadruplex interactions and their effects on phase transitions and protein aggregation”.

What was measured:
Znf706 [1] = target: T1, Znf706 (Homo sapiens, UniProt Q9Y5V0 1-76); assay: NMR; competitive titration with Bcl2SH G4; FP/anisotropy: 20 mM NaPi, 100 mM KCl, 0.05% NaN3, pH 7.4, 25 C (LiCl variant: 20 mM Tris-HCl, 100 mM LiCl, pH 7.4; NaCl variant: 20 mM NaPi, 100 mM NaCl, pH 7.4); NMR: 20 mM NaPi, 100 mM KCl, 7.5% D2O, pH 7.4, 4-50 C; conditions: protein: recombinant; tags: none (His6-SUMO cleaved); chain copies: 2; blunt
T1 sequence: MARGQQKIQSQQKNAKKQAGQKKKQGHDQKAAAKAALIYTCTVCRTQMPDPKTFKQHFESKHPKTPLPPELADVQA

Znf706 [2] = target: T1, Znf706; assay: MST; range over all G4s; strong; exact value in figure; FP/anisotropy: 20 mM NaPi, 100 mM KCl, 0.05% NaN3, pH 7.4, 25 C (LiCl variant: 20 mM Tris-HCl, 100 mM LiCl, pH 7.4; NaCl variant: 20 mM NaPi, 100 mM NaCl, pH 7.4); NMR: 20 mM NaPi, 100 mM KCl, 7.5% D2O, pH 7.4, 4-50 C; conditions: protein: recombinant; tags: none (His6-SUMO cleaved); chain copies: 2; label: 5' 6-FAM; parallel G4
[3] = target: T2, Znf706 N-terminal peptide (Homo sapiens, UniProt Q9Y5V0 1-35); assay: fluorescence polarization; 100 mM KCl; range over three G4s; FP/anisotropy: 20 mM NaPi, 100 mM KCl, 0.05% NaN3, pH 7.4, 25 C (LiCl variant: 20 mM Tris-HCl, 100 mM LiCl, pH 7.4; NaCl variant: 20 mM NaPi, 100 mM NaCl, pH 7.4); NMR: 20 mM NaPi, 100 mM KCl, 7.5% D2O, pH 7.4, 4-50 C; conditions: label: 5' 6-FAM
T2 chain: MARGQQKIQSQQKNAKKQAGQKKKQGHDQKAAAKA

Znf706 [4] = target: T1, Znf706; assay: fluorescence polarization; 100 mM KCl; range over all G4s; less strong; exact value in figure; FP/anisotropy: 20 mM NaPi, 100 mM KCl, 0.05% NaN3, pH 7.4, 25 C (LiCl variant: 20 mM Tris-HCl, 100 mM LiCl, pH 7.4; NaCl variant: 20 mM NaPi, 100 mM NaCl, pH 7.4); NMR: 20 mM NaPi, 100 mM KCl, 7.5% D2O, pH 7.4, 4-50 C; conditions: protein: recombinant; tags: none (His6-SUMO cleaved); chain copies: 2; label: 5' 6-FAM; hybrid G4
Znf706 [5] = target: T1, Znf706; assay: fluorescence polarization; 100 mM KCl; range over all G4s; strong; exact value in figure; FP/anisotropy: 20 mM NaPi, 100 mM KCl, 0.05% NaN3, pH 7.4, 25 C (LiCl variant: 20 mM Tris-HCl, 100 mM LiCl, pH 7.4; NaCl variant: 20 mM NaPi, 100 mM NaCl, pH 7.4); NMR: 20 mM NaPi, 100 mM KCl, 7.5% D2O, pH 7.4, 4-50 C; conditions: protein: recombinant; tags: none (His6-SUMO cleaved); chain copies: 2; label: 5' 6-FAM; parallel G4
Znf706 [6] = target: T1, Znf706; assay: NMR; 37 C; FP/anisotropy: 20 mM NaPi, 100 mM KCl, 0.05% NaN3, pH 7.4, 25 C (LiCl variant: 20 mM Tris-HCl, 100 mM LiCl, pH 7.4; NaCl variant: 20 mM NaPi, 100 mM NaCl, pH 7.4); NMR: 20 mM NaPi, 100 mM KCl, 7.5% D2O, pH 7.4, 4-50 C; conditions: protein: recombinant; tags: none (His6-SUMO cleaved); chain copies: 2; hairpin
Znf706 A2C-AF488 = target: T3, Znf706 A2C-AF488 (Homo sapiens, UniProt Q9Y5V0 1-76, A2C); assay: fluorescence anisotropy; FP/anisotropy: 20 mM NaPi, 100 mM KCl, 0.05% NaN3, pH 7.4, 25 C (LiCl variant: 20 mM Tris-HCl, 100 mM LiCl, pH 7.4; NaCl variant: 20 mM NaPi, 100 mM NaCl, pH 7.4); NMR: 20 mM NaPi, 100 mM KCl, 7.5% D2O, pH 7.4, 4-50 C; conditions: protein: recombinant, tags: none (His6-SUMO cleaved), AF488 label
T3 sequence: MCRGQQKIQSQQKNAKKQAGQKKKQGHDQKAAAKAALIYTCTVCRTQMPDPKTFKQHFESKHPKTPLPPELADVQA

Znf706 A2C-MTSL = target: T4, Znf706 A2C-MTSL (Homo sapiens, UniProt Q9Y5V0 1-76, A2C); assay: PRE NMR; 2:1 protein:DNA, 100 mM KCl, 4 C; FP/anisotropy: 20 mM NaPi, 100 mM KCl, 0.05% NaN3, pH 7.4, 25 C (LiCl variant: 20 mM Tris-HCl, 100 mM LiCl, pH 7.4; NaCl variant: 20 mM NaPi, 100 mM NaCl, pH 7.4); NMR: 20 mM NaPi, 100 mM KCl, 7.5% D2O, pH 7.4, 4-50 C; conditions: protein: recombinant; tags: none (His6-SUMO cleaved); MTSL spin label; parallel G4
T4 sequence: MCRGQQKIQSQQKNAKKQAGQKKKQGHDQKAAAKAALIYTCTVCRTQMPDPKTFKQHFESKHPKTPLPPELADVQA

Znf706 [7] = target: T1, Znf706; assay: NMR; 100 mM KCl; FP/anisotropy: 20 mM NaPi, 100 mM KCl, 0.05% NaN3, pH 7.4, 25 C (LiCl variant: 20 mM Tris-HCl, 100 mM LiCl, pH 7.4; NaCl variant: 20 mM NaPi, 100 mM NaCl, pH 7.4); NMR: 20 mM NaPi, 100 mM KCl, 7.5% D2O, pH 7.4, 4-50 C; conditions: protein: recombinant; tags: none (His6-SUMO cleaved); chain copies: 2; hairpin
Znf706 [8] = target: T1, Znf706; assay: MST; range over all G4s; weakest; exact value in figure; FP/anisotropy: 20 mM NaPi, 100 mM KCl, 0.05% NaN3, pH 7.4, 25 C (LiCl variant: 20 mM Tris-HCl, 100 mM LiCl, pH 7.4; NaCl variant: 20 mM NaPi, 100 mM NaCl, pH 7.4); NMR: 20 mM NaPi, 100 mM KCl, 7.5% D2O, pH 7.4, 4-50 C; conditions: protein: recombinant; tags: none (His6-SUMO cleaved); chain copies: 2; label: 5' 6-FAM
Znf706 [9] = target: T1, Znf706; assay: MST; range over all G4s; less strong; exact value in figure; FP/anisotropy: 20 mM NaPi, 100 mM KCl, 0.05% NaN3, pH 7.4, 25 C (LiCl variant: 20 mM Tris-HCl, 100 mM LiCl, pH 7.4; NaCl variant: 20 mM NaPi, 100 mM NaCl, pH 7.4); NMR: 20 mM NaPi, 100 mM KCl, 7.5% D2O, pH 7.4, 4-50 C; conditions: protein: recombinant; tags: none (His6-SUMO cleaved); chain copies: 2; label: 5' 6-FAM; hybrid G4

B1: Bcl2SH duplex (dsDNA)
DNA 1: AGGAGGGGGGCGGGA
DNA 2: TCCCGCCCCCCTCCT
binding result (Znf706 [1]): no binding

UAGGGUUAGGGUUAGGGUUAGGG (structured_RNA) [TERRA, 6-FAM]
Kd (Znf706 [2]): ~4.47 µM

GGGCGCGGGAGGAAGGGGGCGGG (structured_DNA) [Bcl2WT, 6-FAM]
Kd ([3]; hybrid G4): ~17.2 µM
Kd (Znf706 [4]): ~4.47 µM

TAGGGAGGGTAGGGAGGGT (structured_DNA) [cMyc (Pu19_A2A11), 6-FAM]
Kd ([3]; parallel G4): ~17.2 µM
Kd (Znf706 [5]): ~4.47 µM

GGTTGGGGTTGTTTTCAACCCCAACC (structured_DNA) [GGGG hairpin]
binding result (Znf706 [6]): no binding

AGGAGGGGGGCGGGA (structured_DNA) [Bcl2SH, 6-FAM]
Kd ([3]; parallel G4): ~17.2 µM
Kd (Znf706 [5]): ~4.47 µM

TAGGGAGGGTAGGGAGGGT (structured_DNA) [cMyc (Pu19_A2A11)]
binding result (Znf706 A2C-AF488; parallel G4): binds
binding result (Znf706 A2C-MTSL): binds

GGAAGGAAGGTTTTCCTTCCTTCC (structured_DNA) [GGA hairpin]
binding result (Znf706 [7]): no binding

GGCGAGGAGGGGCGTGGCCGGC (structured_DNA) [Kit*, 6-FAM]
Kd (Znf706 [8]): ~4.47 µM

TTGGGTTAGGGTTAGGGTTAGGGA (structured_DNA) [hTel, 6-FAM]
Kd (Znf706 [9]): ~4.47 µM

GGGGCCGGGGCCGGGGCCGGGGCC (structured_DNA) [G4C2 4-repeat]
binding result (Znf706 A2C-AF488): binds
